The labels stand for the following.
B1: ScMad2^wt (recombinant S. cerevisiae Mad2, wild type) (natural protein)
chain: MSQSISLKGSTRTVTEFFEYSINSILYQRGVYPAEDFVTVKKYDLTLLKTHDDELKDYIRKILLQVHRWLLGGKCNQLVLCIVDKDEGEVVERWSFNVQHISGNSNGQDDVVDLNTTQSQIRALIRQITSSVTFLPELTKEGGYTFTVLAYTDADAKVPLEWADSNSKEIPDGEVVQFKTFSTNDHKVGAQVSYKY

Experiment [1] concerns the target C-Mad2^wt–Cdc20^195–211 complex (S. cerevisiae, UniProt P40958;P26309). Kind of experiment: SEC. For orientation: Size exclusion chromatography separates by hydrodynamic size, large species first.
Experiment [2] concerns the target B1. Kind of experiment: pull-down.
The target of experiment [3] is T1, AlexaFluor488-ScMad2^wt (S. cerevisiae, UniProt P40958 1-196, AlexaFluor488 succimidyl ester reactive dye, covalent, final dye/protein ratio ~0.5).
T1 sequence: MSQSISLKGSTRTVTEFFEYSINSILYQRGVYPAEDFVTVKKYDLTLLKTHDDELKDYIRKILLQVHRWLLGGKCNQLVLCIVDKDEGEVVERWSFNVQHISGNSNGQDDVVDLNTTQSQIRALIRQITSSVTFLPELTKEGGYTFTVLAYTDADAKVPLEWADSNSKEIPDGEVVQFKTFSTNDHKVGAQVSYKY
As to the kind of experiment: SEC.

The target in experiment [4] is T2, ScMad2^RQEA (recombinant, Arg126-Glu/Gln127-Ala) (S. cerevisiae, UniProt P40958 1-196, R126E | Q127A).
T2 sequence: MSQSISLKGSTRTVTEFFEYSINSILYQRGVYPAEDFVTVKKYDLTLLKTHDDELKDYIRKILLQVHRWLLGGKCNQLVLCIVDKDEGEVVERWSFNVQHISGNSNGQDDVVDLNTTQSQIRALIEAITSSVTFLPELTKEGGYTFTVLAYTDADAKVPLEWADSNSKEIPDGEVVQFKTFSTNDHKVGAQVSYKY
As to the kind of experiment: ITC. In general terms: In ITC the heat of successive injections is recorded.

Experiment [5] deals with B1. As to the kind of experiment: SEC.
For experiment [6], the target named is AlexaFluor488-HsMad2^wt (human, UniProt Q13257 1-205, AlexaFluor488, covalent). As to the kind of experiment: SEC.
AlexaFluor488-HsMad2^wt, sequence (Q13257 whole entry): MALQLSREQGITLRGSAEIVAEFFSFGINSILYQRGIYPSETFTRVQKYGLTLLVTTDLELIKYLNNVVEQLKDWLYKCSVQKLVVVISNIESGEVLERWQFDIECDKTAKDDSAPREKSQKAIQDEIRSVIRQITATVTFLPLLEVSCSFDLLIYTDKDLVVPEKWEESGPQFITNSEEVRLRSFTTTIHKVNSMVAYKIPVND

The record followed here is paper PMC2064158 (The Journal of Cell Biology, 2006).

Consider B1, for which, in experiment [1], the “percent of total Mad2 in the dimer peak at a 4:1 Mad2/Cdc20^195–211 ratio” value is approximately 50%.
In the case of QLLQEKLEKLTKLKEKKIRILQLRDGPF (domain or fragment) [GST-ScMad1^563–590], the binding result in experiment [2] was “binds”.
Take IVFKQNVAEACGLDMNKRILQYMPEPP (domain or fragment) [GST-ScCdc20^184–210]: the binding result in experiment [2] is “binds”.
On to GLDMNKRILQYMPEPPK [ScCdc20^195–211 synthetic peptide], for which the binding result in experiment [3] and in experiment [4] was “binds” throughout.

B2: ScMad2^ΔC (recombinant, six residues deleted from the C terminus) (domain or fragment)
chain: MSQSISLKGSTRTVTEFFEYSINSILYQRGVYPAEDFVTVKKYDLTLLKTHDDELKDYIRKILLQVHRWLLGGKCNQLVLCIVDKDEGEVVERWSFNVQHISGNSNGQDDVVDLNTTQSQIRALIRQITSSVTFLPELTKEGGYTFTVLAYTDADAKVPLEWADSNSKEIPDGEVVQFKTFSTNDHKVGA
For B2, the binding result in experiment [5] is “binds”.
As to EHQKAWALNLNGFDVEEAKILRLSGKPQ [HsCdc20^111–138 synthetic peptide], in experiment [6], the binding result was “binds”.
